Molecular target: T1, GST-RadilPDZ (human, UniProt Q96JH8 870-1075)
T1 sequence (looked up): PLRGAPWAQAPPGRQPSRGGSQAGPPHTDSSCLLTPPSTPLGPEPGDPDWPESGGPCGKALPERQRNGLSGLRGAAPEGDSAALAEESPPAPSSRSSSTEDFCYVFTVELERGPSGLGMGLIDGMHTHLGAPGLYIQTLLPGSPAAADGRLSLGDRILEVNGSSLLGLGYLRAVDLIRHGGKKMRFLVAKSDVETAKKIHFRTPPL
Assay: pull-down

B1: Flag-KIF14-ctail-IQWV (domain or fragment, human, UniProt Q15058 1483-1648, looked up)
chain: VQEENFEYQDFKRMVNRAPEFLKLKHCLEKAIEIIISALKGCHSDINLLQTCVESIRNLASDFYSDFSVPSTSVGSYESRVTHIVHQELESLAKSLLFCFESEESPDLLKPWETYNQNTKEEHQQSKSSGIDGSKNKGVPKRVYELHGSSPAVSSEECTPSRIQWV
B1: binds.

Reference: paper PMC3518219 (The Journal of Cell Biology, 2012)
